Laboratory results published in IntAct's records for PubMed 16763556.

B1: DNA polymerase eta (Homo sapiens), Q9Y253 (parent)
chain: MATGQDRVVALVDMDCFFVQVEQRQNPHLRNKPCAVVQYKSWKGGGIIAVSYEARAFGVTRSMWADDAKKLCPDLLLAQVRESRGKANLTKYREASVEVMEIMSRFAVIERASIDEAYVDLTSAVQERLQKLQGQPISADLLPSTYIEGLPQGPTTAEETVQKEGMRKQGLFQWLDSLQIDNLTSPDLQLTVGAVIVEEMRAAIERETGFQCSAGISHNKVLAKLACGLNKPNRQTLVSHGSVPQLFSQMPIRKIRSLGGKLGASVIEILGIEYMGELTQFTESQLQSHFGEKNGSWLYAMCRGIEHDPVKPRQLPKTIGCSKNFPGKTALATREQVQWWLLQLAQELEERLTKDRNDNDRVATQLVVSIRVQGDKRLSSLRRCCALTRYDAHKMSHDAFTVIKNCNTSGIQTEWSPPLTMLFLCATKFSASAPSSSTDITSFLSSDPSSLPKVPVTSSEAKTQGSGPAVTATKKATTSLESFFQKAAERQKVKEASLSSLTAPTQAPMSNSPSKPSLPFQTSQSTGTEPFFKQKSLLLKQKQLNNSSVSSPQQNPWSNCKALPNSLPTEYPGCVPVCEGVSKLEESSKATPAEMDLAHNSQSMHASSASKSVLEVTQKATPNPSLLAAEDQVPCEKCGSLVPVWDMPEHMDYHFALELQKSFLQPHSSNPQVVSAVSHQGKRNPKSPLACTNKRPRPEGMQTLESFFKPLTH
B2: DNA polymerase iota (Homo sapiens), Q9UNA4 (parent)
chain: MEKLGVEPEEEGGGDDDEEDAEAWAMELADVGAAASSQGVHDQVLPTPNASSRVIVHVDLDCFYAQVEMISNPELKDKPLGVQQKYLVVTCNYEARKLGVKKLMNVRDAKEKCPQLVLVNGEDLTRYREMSYKVTELLEEFSPVVERLGFDENFVDLTEMVEKRLQQLQSDELSAVTVSGHVYNNQSINLLDVLHIRLLVGSQIAAEMREAMYNQLGLTGCAGVASNKLLAKLVSGVFKPNQQTVLLPESCQHLIHSLNHIKEIPGIGYKTAKCLEALGINSVRDLQTFSPKILEKELGISVAQRIQKLSFGEDNSPVILSGPPQSFSEEDSFKKCSSEVEAKNKIEELLASLLNRVCQDGRKPHTVRLIIRRYSSEKHYGRESRQCPIPSHVIQKLGTGNYDVMTPMVDILMKLFRNMVNVKMPFHLTLLSVCFCNLKALNTAKKGLIDYYLMPSLSTTSRSGKHSFKMKDTHMEDFPKDKETNRDFLPSGRIESTRTRESPLDTTNFSKEKDINEFPLCSLPEGVDQEVFKQLPVDIQEEILSGKSREKFQGKGSVSCPLHASRGVLSFFSKKQMQDIPINPRDHLSSSKQVSSVSPCEPGTSGFNSSSSSYMSSQKDYSYYLDNRLKDERISQGPKEPQGFHFTNSNPAVSAFHSFPNLQSEQLFSRNHTTDSHKQTVATDSHEGLTENREPDSVDEKITFPSDIDPQVFYELPEAVQKELLAEWKRAGSDFHIGHK

Variants of: B1
Conditions: with ubc_human UBC

effect of a mutation on the interaction	Variant
disrupting interaction	H654A

Variants of: B2
Conditions: with ubc_human UBC

effect of a mutation on the interaction	Variant
decreasing interaction strength	P717R
